How the values were obtained:
[1] = molecular target: soluble human FcγRIIB (human) (UniProt P31994); assay: SPR (BIACORE); koff compared with wild-type Fc
[2] = molecular target: soluble human FcγRIIIA V158 (human) (UniProt P08637); assay: SPR (BIACORE); koff compared with wild-type Fc
[3] = molecular target: CD32A^H (UniProt P12318); assay: SPR (BIACORE); koff compared with wild-type Fc
[4] = molecular target: soluble human FcγRIIIA F158 (human) (UniProt P08637); assay: SPR (BIACORE); koff compared with wild-type Fc
[5] = molecular target: soluble human FcRn (human) (UniProt P55899); assay: SPR (Biacore 3000); ch4420 captured on protein-FITC surface; 500 nM hFcRn injected; pH 6.0

UniProt P12318, sequence (P12318 34-217 limits assumed): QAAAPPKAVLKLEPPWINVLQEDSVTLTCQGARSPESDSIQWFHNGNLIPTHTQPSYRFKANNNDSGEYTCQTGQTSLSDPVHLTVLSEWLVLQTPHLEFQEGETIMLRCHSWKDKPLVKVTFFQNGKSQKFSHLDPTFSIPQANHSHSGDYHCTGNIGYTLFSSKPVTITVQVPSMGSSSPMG
UniProt P31994, sequence (P31994 43-217 limits assumed): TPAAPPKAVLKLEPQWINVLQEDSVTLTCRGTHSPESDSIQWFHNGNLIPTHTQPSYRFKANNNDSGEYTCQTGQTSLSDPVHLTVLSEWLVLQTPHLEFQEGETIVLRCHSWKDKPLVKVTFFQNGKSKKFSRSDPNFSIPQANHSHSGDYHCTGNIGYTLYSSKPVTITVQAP

ratio WT koff/mutant koff [1] [fold]	ratio WT koff/mutant koff [2] [fold]	ratio WT koff/mutant koff [3] [fold]	ratio WT koff/mutant koff [4] [fold]	fold increase of binding response over wild type [5] [fold]	Substance
0.8	4.8	0.6			Fc mutant 1 (F243L)
0.4	1.3	2.2			Fc mutant 2 (D270E)
0.3	2.4	0.7	1.6		Fc mutant 3 (R292P)
0.2					Fc mutant 4 (S298N)
1.2		2.9	1.2		Fc mutant 5 (Y300L)
1.2	0.9	1.3	0.6		Fc mutant 6 (V305I)
0.3	0.6	0.4	1.2		Fc mutant 7 (A330V)
2.6	1.3	1.6			Fc mutant 8 (P396L)
1.6		1.5			Fc mutant 9 (F243L P396L)
0.2	4	0.5			Fc mutant 10 (F243L R292P)
0.4		0.8			Fc mutant 11 (R292P V305I)
0.6	7.4	1	4.6		Fc mutant 12 (F243L R292P Y300L)
0.1	2.6	0.2	1.4		Fc mutant 13 (F243L R292P V305I)
0.4	6.3	1.4			Fc mutant 14 (F243L R292P P396L)
0.9	1.9	1.5	1.9		Fc mutant 15 (R292P V305I P396L)
1.1	10.1	1.7	5.6		Fc mutant 16 (F243L R292P Y300L P396L)
0.4	4	0.8	2.3		Fc mutant 17 (F243L R292P V305I P396L)
1.4	10.1	3.2	8.3		Fc mutant 18 (F243L R292P Y300L V305I P396L)
				< 4	ch4420 variant H435K (antibody)
